Assay results taken from paper PMC6019700 (Cell Reports, 2018).

Legend:
[1] = biological target: PC64M18C043 full-length Env (late FL), clade A HIV-1 Env clone no. 43 from the 18 months post-infection … (HIV-1 clade A, donor PC64, clone …, strain, N-linked glycans (N130, N156, N160 and others) | N-linked glycans (N611, N616, N637 and others)); assay: cell-based or functional assay
[2] = biological target: PC64M4C054 full-length Env (early FL) (HIV-1 clade A, donor PC64, clone …, strain, N-linked glycans | N-linked glycans); assay: cell-based or functional assay

B1: PCT64-35S Fab (late Fab), PCT64 lineage antibody isolated from the month 35 sample (Fab, V domains shown)
VH: EVQLVESGGGLVKPGGSLRLACVGSEFTFSEAWMTWVRQAPGKGLEWVGHMRPTTEGGAKDYAAAVRGRFTIARDDSKSTLYLQMNSLKIEDTGVYYCMTGVERGDFWSDDYSQHYNTYLIDVWGKGTTVTVSS
VL: EIVLTQSPGTLSLSPGDRATLSCRATQSVGGDYFAWYQQRPGQSPRLLIYGTSRRAAGIPDRFSGSGSGTDFTLTIDRLEPEDFAVYYCRQYETSFTFGPGTKVDIK
neutralisation of late M18 virus by the antibody PCT64-35S, IC50 [1]: 9 µg/mL

B2: PGT151 Fab (Fab, V domains shown)
VH: RVQLVESGGGVVQPGKSVRLSCVVSDFPFSKYPMYWVRQAPGKGLEWVAAISGDAWHVVYSNSVQGRFLVSRDNVKNTLYLEMNSLKIEDTAVYRCARMFQESGPPRLDRWSGRNYYYYSGMDVWGQGTTVTVSS
VL: DIVMTQTPLSLSVTPGQPASISCKSSESLRQSNGKTSLYWYRQKPGQSPQLLVFEVSNRFSGVSDRFVGSGSGTDFTLRISRVEAEDVGFYYCMQSKDFPLTFGGGTKVDLK
neutralisation of late Env pseudovirus, IC50 [1]: 0.0013 µg/mL

B3: PCT64-13C Fab (early Fab), PCT64 lineage antibody isolated from month 13 (Fab, V domains shown)
VH: EVQLVESGGGLVKPGGSLRLSCAASGFTFTNAWLDWVRQAPGKGLEWVGRIKSKTDGGTTDHAAPVKGRFTISRDDSKNTVYLQMNSLKIEDTAVYYCTTGVETYDFWSGYDDHYYDYYFKDVWGKGTTVTVSS
VL: EIVLTQSPGTLSLSPGERATLSCRASQSVSNNYLAWYQQKPGQAPRLLIYGASSRATGIPDRFSGSGSGTDFTLTISRLEPEDFAVYYCQQSARSFTFGPGTKVDIK
neutralisation of early M4 virus by the antibody PCT64-13C, IC50 [2]: 0.0229 µg/mL
